Test: soluble on expression in E. coli; label from the status in PepcDB or PDB records

| Sequence | soluble on expression in E. coli |
| --- | --- |
| RAKGTLRIWAEPFTKLRVPKIFNLRMDPYEVADVTSNTYYDWMLDRAYMLVPAQTYVGRFLETFKEFPPRQKAASFSLDQVMEKLQENPNK | not soluble |
| RALCDEDMKKVFTRLPSSSAIPLAVRRAQDMFVLMFLLRGLPFVDLAYLRKSDLRDNVITYRRRKTGRPLSVTLTPEALELLKKYMNRDSHSPYLFSLLKSGEGTKEAYREYQLALRSFNQQLTLLGEVLGLNDKLSSYTARHTWATTAYYCEIHPGIISEAMGHSSIKVTETYLKPFRNKKIDEANNQIIDFVKHSIAGVVS | not soluble |
| RDFSPVPWSQYFESMEDVEVENETGKDTFRVYKSGSEGPVLLLLHGGGHSALSWAVFTAAIISRVQCRIVALDLRSHGETKVKNPEDLSAETMAKDVGNVVEAMYGDLPPPIMLIGHSMGGAIAVHTASSNLVPSLLGLCMIDVVEGTAMDALNSMQNFLRGRPKTFKSLENAIEWSVKSGQIRNLESARVSMVGQVKQCEGITSPEGSKKDHPYTWRIELAKTEKYWDGWFRGLSNLFLSCPIPKLLLLAGVDRLDKDLTIGQMQGKFQMQVLPQCGHAVHEDAPDKVAEAVATFLIRHRFAEPIGGFQCVFPGC | soluble |
| RENRNGDLYSLIYGTVSSEAIDPVEKKPLYHFFPGSYVYSVGTIGCNFRCKHCQNWSISQVCLEDAYTKDILPEELVERALLSDSKSIAWTYNEPTIWHEYTYESAKLAKEAGLGTIYVTNGYMTPESLKHIAPYLDAANIDIKAFNEKFYHDIASAKLAPVLEASALAKELGIHVEITTLIIPGVNDSLDELRELSKWVYKNLGPDTPLHFTRFHPQYKMQDLSPTPVKTMENACKIATEEGMKYVYMGNV | not soluble |
| RGEPYAGQVAVGATVINRTKNPKFPSTIAGVIYQPGAFTAIVDGQIHATMEPNSIRAARDALNGWDPSGGAIYYFNPATATSGWIWSRPLIIIIGKHRFCR | not soluble |
| RGETIKGQFAVAEVILNRVQSERFPNTPCGVIRQGTGRKYQCQFTYTCDGRKEVIAEKQAYERVAKVARLAMDGAAESLTDGATYYHTTAVRPSWARRFTQTTKIGVHLFYRQGQRTASN | not soluble |
| RGFQHGIRHNVEQFGMGTSAISFSTWRTSKEYGGYPKDRYIELTPADCDYLVKLNPDLIKGAAYYTNQWSYDVQYEDRTHSTPTKAVSGEYGNMVKTHLIEGRFLSTSDDAMKRKVIVLCEQTADVLFGESISPIGKYVNLSQIPFLVVGVCKGEQGQFSPNYIPFATYSGIFAKGFSLDCTLFMNCPSVRTEENVERLKVLLNRQLAFRKGYDPTDMEVPYVDAPVTDIKMMDKIFNGMD | not soluble |
| RHMELSPDGNLKTTITIGDRLTYDITCNGRQILTPSPISMTLDNGTVWGENAKLSGTSRKSVDEMIPSPFYRASELRNHYNGLTLRFKKDWNVEFRAYNDGIAYRFVNQGKKPFRVVTEVSDYCFPSDMTASVPYVKSGKDGDYNSQFFNSFENTYTTDKLSKLNKQRLMFLPLVVDAGDGVKVCITESDLENYPGLYLSASEGANRLSSMHAPYPKRTVQGGHNQLQMLVKEHEDYIAKVDKPRNFPWRIAVVTTTDKDLAATNLSYLLGAPSRMSDLSWIKPGKVAWDWWNDWNLDGVDFVTGVNNPTYKAYIDFASANGIEYVILDEGWAVNLQADLMQVVKEIDLKELVDYAASKNVGIILWAGYHAFERDMENVCRHYAEMGVKGFKVDFMDRDDQEMTAFNYRAAEMCAKYKLILDLHGTHKPAGLNRTYPNVLNFEGVNGLEQMKWSSPSVDQVKYDVMIPFIRQVSGPMDYTQGAMRNASKGNYYPCYSEPMSQGTRCRQLALYVVFESPFNMLCDTPSNYMREPESTAFIAEIPTVWDESIVLDGKMGEYIVTARRKGDVWYVGGITDWSARDIEVDCSFLGDKSYHATLFKDGVNAHRAGRDYKCESFPIKKDGKLKVHLAPGGGFALKIK | soluble |
| RHQVESSPLFRALALRCNQTMVTLRSANMFHAYGFLAKVFEILAKHKISVDLITTSEISVSLTLDQTDTSGGAPQLPQAAREELEELCKVEVEHDLCLVALIGNKMSERKGYAKQVFGTLEDLNLRMICYGASPHNLCFLVNESVAKQAIQKLHTELFEQ | not soluble |
| RKLHAEELLRLAMAHLRNQGKPVRIVDIAAGHGRYILESLRGVEPLPESILLRDYSDINVRDGSLLIEQKDLEDIARFVKGDAFDRNDLATLDPKPTLAVVSGLYELFSSNQMVGDSLAGLAAAVEPGGYLVYTGQPWHPQLELIARALTSHREGQAWVMRRRSQSEMDQLVEAAGFRKITQRVDEWGIFTVSLAQRIQ | not soluble |
| RKLTMNSNYKREDFVNETEVRWCPGCGDYAILAALQRVLPELGLPPEQHVFVSGIGCAGRLPYYMNTYGFHTIHGRATAVATGLKAMREDLCVWVITGDGDALSIGGNHLLHILRRNVNVNILLFNNQVYGLTKGQFSPTSQKGQVTKTSPKGVTSEPINPIMIALASGASFVARAVDKDPVHLASVLKKAYEHKGCSFVEIYQDCNIFNHGAFDDFAVKNNRAENTIILEDGQPLVFGAQKEKALQLDDEQFVQISIDEKTLYKHDEKNLISAMRLARLTFPDYPVPLGVYYQKDRERFTLSQEVKKRPEDLP | not soluble |
| RKNSQSETFKVGVLQYVSHNALDEIYRGIKAGLKEEGYSGKKIKIDFMNAEGDQSKVQTMSQTLVNHKNDVLVGIATPAAQGLASATKKTPIIMGAVTDPVGAKLVKDLKKPNGNVTGVSDKTPISDQVSLIKKLTPDVKTVGILYSSSEDNSKSQVEEFKKIAEKKGYKVLEYSVPSTNEIATTMNVMLDKTDAVWIPLDNTIASAFPTVVSAAKTAKKPIYPSVDTMVTEGGLASVVVDQYKLGVATGKMAVKVFEGKKVSQLPVDIFDKGTPVVNKKVAKELGIDIPSDILKKAKQQKNQ | not soluble |
| RKQDTQRALHLLEEYRSKLSQTEDRQLRSSIERVISIFQSNLFQALIDIQEFYEVTLLDN | soluble |
| RLCKALYSFQARQDDELNLEKGDIVIIHEKKEEGWWFGSLNGKKGHFPAAYVEELPSNAGNTATKA | soluble |
| RLIVGKHHWKIEKQPEWYVKAVRKTIAALPSGYAEAADWLDVTENALFNRLRADGDQIFPLGWAMVLQRAGGTHFIADAVAQSANGVFVSLPDVEDVDNADINQRLLEVIEQIGSYSKQIRSAIEDGVVEPHEKTAINDELYLSISKLQEHAALVYKIFCISESNDARECAAPGVVASIASGCGETNA | soluble |
| RLLKVPVFVHESDLSMGLANKIAYKFATIMYTTFEQSKDLIKTKHIGAVTKVMDCKKSFENTDLTSIKEAFDPNLKTLLFIGGSAGAKVFN | not soluble |
| RNMDASPLAKRNSLQLFTDGQEKFQALFEDIRAAKETVHVEYYAFFNDTIGNQFLDVLIEKLHEGVEVYLIYDPWGSPGANKKFFARYVDAGGKVAPFITSRDMIRKTRLNYHLHRKIVVIDGKIGWTGGFNVGDQYLNVTEKFGYWRDTHIRLVGTAVFSLQEIFIMDWNASVKYPEERMTYHEKYFKLPEDHEVEHLSLQVVSDGPDSEEEILKSG | not soluble |
| RNRQQRPGTIKHGSALDVLLSMGFPRARAQKALASTGGRSVQTACDWLFSH | soluble |
| RPQNTNSWQKDSIEGIDIMLAMDVSGSMQAMDFKPNRLEAAKDVAISFINNRPNDNIGMVTFAGESFTQCPLTTDHTVLLNMVQDLQ | soluble |
| RQRSLSTSGESLYHVLGLDKNATSDDIKKSYRKLALKYHPDKNPDNPEAADKFKEINNAHAILTDATKRNIYDKYGSLGLYVAEQFGEENVNTYFV | soluble |
| RTEVVAVALDTSLEELKGRFVESGISKIIVYDGNIDNVVGYIHSSEMFRSPKDWRNHVKEVPIVPETMAAHKLMKLFMQQKKTIAVVVDEFGGTSGIVSLEDLVEEIFGDIEDEHDNTSYICKQIGE | not soluble |
| RWYQRYLNPDRRHLAIDPYICGTVLTYSSDAPIGDSAPTTSCYMTGMPSNTGFVSTYPVSSGDADLIPVDKARAYSPLATFLEAAKIMKGKKTGLVVTCHFPHATPADCSAHSYSRKKYDWIAAQMVHQNLDVVLGGGTHYLHPELQSVLNSRGYGLFLDDLNGMRTYAGDRMWALFGKREMPYDLDRDTTQIPSLEEMTRLAIEKLNRSEEGFFLMVEGSKVDWAAHANDPVGIATEYLAFDRACAVAFDFARRDGQTAVIIVPDHGNSGVSIGKQSVKDYDKRSAKDLFDQLCRFRLTADGLAGRLADTPADKVQGLVSNICGFELDAKELEALYNCPDYNHSPIPKEQRRQTEESLYSGSLSTFIASLYTKHTSIGFTTHGHTAEEVLLAAYHPQDTRPMGMVINYELNDYLCRLFELGSQLPVLTDKIFAPHTEVFQGMSYSIKDGKKEGELPVLEVKKGSHRLLASPFSNTVIFNKKAIDLSSVVVYVDKTKTFYLPRELRSLFGE | not soluble |
| SAAHQMDSITYSNNVTQQYIQPQSLQDISAVEDEIQNKIEAARQESKQLHAQINKAKHKIQDASLFQMANKVTSLTKNKINLKPNIVLKGHNNKISDFRWSRDSKRILSASQDGFMLIWDSASGLKQNAIPLDSQWVLSCAISPSSTLVASAGLNNNCTIYRVSKENRVAQNVASIFKGHTCYISDIEFTDNAHILTASGDMTCALWDIPKAKRVREYSDHLGDVLALAIPEEPNSENSSNTFASCGSDGYTYIWDSRSPSAVQSFYVNDSDINALRFFKDGMSIVAGSDNGAINMYDLRSDCSIATFSLFRGYEERTPTPTYMAANMEYNTAQSPQTLKSTSSSYLDNQGVVSLDFSASGRLMYSCYTDIGCVVWDVLKGEIVGKLEGHGGRVTGVRSSPDGLAVCTGSWDSTMKIWSPGYQ | not soluble |
| SAKFVIAGRADCPYYAKTELVADYLQKNLPDFRIHKITQRPEVWEDWLKDVCEKNKWSHKNSPIIWRELLDRGGKGLLLGGYNEFLEHAQLYYDVTSSMTTELMMVIAQENLGAHIEKEQEEEALKTCINPLQVWITSEWVKREFVAILKNLTTTGRQFGGILAAHSIATTLKYWYHGSPPGEIVSLGILSEGQFGIPKGIVFSMPVKFENGTWVVLTDLKDVEISEQIMTRMTSDLIQEKLVALGDKIHFQPYQSDTPRTNTLHPSIQSSWHSVLTITIRKR | soluble |
| SAMRQTPLTCSGHTRPVVDLAFSGITPYGYFLISACKDGKPMLRQGDTGDWIGTFLGHKGAVWGATLNTEATKAATAAADFTAKVWDAVTGDEVLTLAHKHIVKSVNFTQDSNYLLTGGNDKVLRIYDLSKPEAEPQEIAGHTSAIKKALWCNNDQQILSAADDKTIRLWDKNTNEAVKTLSFDASVSSMEYIPDGETLVITYGRTIAFYNAHSLDLIKTVDAPASIHSASLHPDKDFFVAGGDDFKLYKYDYTTKEEMESYKGHFGPVHCVRFSPDGELYASGSEDGTLRLWQTAVGKTYGLWKCVLPEELSSENSEALYCPPAEIKA | soluble |
| SAQKPKVDPHVGRLGYLQALVTEFQETQSQDAKEQVLANLANFAYDPSNYEYLRQLQVLDLFLDSLSEENETLVEFAIGGLCNLCPDRANKEHILHAGGVPLIINCLSSPNEETVLSAITTLMHLSPPGRSFLPELTATPVVQCMLRFSLSASARLRNLAQIFLEDFCSPRQVAEARSRQAHSALGIPLPRSVAPRQR | soluble |
| SASGYQFGSVDQVEGGSVQYTRKYLGTGNLNDLYVGIGATPFKNFSIGANASSLFGRFTHSRQVIFSTEAPYNPVHLSTLYLKAAKFDFGMQYHLLLKSDRSLVIGAVYSPRVKMHSELTQIKNQVQNGVVVESETQEYIKGMDYYTLPHTLGIGFSYEKKDKLLLGADVQYSKWKGEKFYKSDCKFQDRIRVSLGGEIIPDINAVGMWPKVRYRFGLHGENSYLKVPTKGGV | not soluble |

Source: the DeepSol protein solubility set
